Reference: US20190106487A1 (Sanofi, published 2019)
Where a chain is given by its changes, count along the chain named. Values belong to the binder of their own block, whether it stands above or below them.

What was measured:
[1] = target: T1, human IL-1RAcP on 293T/17-FR cells (human, UniProt Q9NPH3 21-570); assay: cell-based or functional assay
T1 sequence (looked up): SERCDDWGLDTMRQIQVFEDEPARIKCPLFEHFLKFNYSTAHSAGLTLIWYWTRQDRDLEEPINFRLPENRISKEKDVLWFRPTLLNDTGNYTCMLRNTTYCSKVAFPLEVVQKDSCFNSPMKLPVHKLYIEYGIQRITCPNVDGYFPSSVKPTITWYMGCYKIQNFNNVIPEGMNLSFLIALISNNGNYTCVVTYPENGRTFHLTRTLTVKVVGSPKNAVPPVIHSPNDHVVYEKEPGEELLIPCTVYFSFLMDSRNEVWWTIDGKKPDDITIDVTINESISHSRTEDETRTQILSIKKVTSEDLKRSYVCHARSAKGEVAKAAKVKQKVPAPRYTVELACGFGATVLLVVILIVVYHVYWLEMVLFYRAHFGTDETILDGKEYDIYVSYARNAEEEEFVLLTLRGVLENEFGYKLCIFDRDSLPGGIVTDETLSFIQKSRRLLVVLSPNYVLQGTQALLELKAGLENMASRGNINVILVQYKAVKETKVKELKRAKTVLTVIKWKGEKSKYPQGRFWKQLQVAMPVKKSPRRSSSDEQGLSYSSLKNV

rhIL-1RAcP/Fc Chimera [2] = target: T2, rhIL-1RAcP/Fc Chimera (human, UniProt Q9NPH3 21-359); assay: ELISA, recombinant purified mAb
T2 construct: also called P013_03; P013-03
T2 sequence (looked up): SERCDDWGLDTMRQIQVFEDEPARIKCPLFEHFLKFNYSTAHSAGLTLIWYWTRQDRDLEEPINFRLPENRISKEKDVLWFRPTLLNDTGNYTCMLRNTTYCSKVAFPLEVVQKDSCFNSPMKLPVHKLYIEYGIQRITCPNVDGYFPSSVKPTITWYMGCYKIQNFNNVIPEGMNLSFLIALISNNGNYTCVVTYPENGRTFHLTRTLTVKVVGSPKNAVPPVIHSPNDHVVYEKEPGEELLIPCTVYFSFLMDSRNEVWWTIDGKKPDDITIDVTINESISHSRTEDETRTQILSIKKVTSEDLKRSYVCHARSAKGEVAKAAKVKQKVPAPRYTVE

rhIL-1RAcP/Fc Chimera [3] = target: T2, rhIL-1RAcP/Fc Chimera; assay: ELISA, primary supernatant, coated hu-IL-1RAcP-Fc
Summary of the method: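 Plates coated with 0.5 μg/mL Fc-tagged human IL-1RAcP; rabbit B-cell supernatant antibodies detected by peroxidase anti-rabbit IgG Fab2 and TMB, absorbance 450/620 nm. Parallel IL12Rβ1-Fc coating served as counterscreen to exclude tag binders.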

mIL1RAcP-Fc = target: T3, mIL1RAcP-Fc (murine, UniProt Q61730 21-359); assay: ELISA, primary supernatant, coated mu-IL-1RAcP-Fc
T3 construct: also called P013_04; P013-04
T3 sequence (looked up): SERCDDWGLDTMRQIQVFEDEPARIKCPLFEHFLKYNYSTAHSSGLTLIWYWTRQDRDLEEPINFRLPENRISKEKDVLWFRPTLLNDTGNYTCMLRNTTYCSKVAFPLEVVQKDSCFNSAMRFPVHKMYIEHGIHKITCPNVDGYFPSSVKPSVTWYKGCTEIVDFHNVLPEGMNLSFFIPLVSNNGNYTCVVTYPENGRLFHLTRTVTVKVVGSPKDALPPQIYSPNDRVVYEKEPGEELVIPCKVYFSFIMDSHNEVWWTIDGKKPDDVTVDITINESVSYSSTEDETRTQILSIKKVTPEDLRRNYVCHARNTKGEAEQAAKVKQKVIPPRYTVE

B2: P013.S.01.B.E05 (antibody, V domains shown)
VH: QSLEESGGDLVKPGASLTLTCTASGISFSSSDFMCWVRQAPGKGLEWIACIYAGSSVSIYYATWAKGRFTISKASSTTVTLQMASLTVADTATYFCARSTGSVGRGFNLWGQGTLVTVSS
VL: AQVLTQTPSPVSAAVGGTVTISCQASQSVYNSNHLSWYQQKPGQPPRLLIYSASTLASGVPSRFKGSGSGTQFTLTISGVQSDDAATYYCQGEFSCVSADCIAFGGGTEVVVK
notes: rabbit monoclonal antibody; also called P013.A.00086.F02
functional reporter gene assay (% inhibition), 0.04 µg/mL mAb [1]: 26%
functional reporter gene assay (% inhibition), 0.2 µg/mL mAb [1]: 61%
functional reporter gene assay (% inhibition), 1 µg/mL mAb [1]: 81%
functional reporter gene assay (% inhibition), 5 µg/mL mAb [1]: 93%
primary supernatant functional assay (% inh.), NF-kB luciferase reporter [1]: 98%
EC50 (rhIL-1RAcP/Fc Chimera [2]): 0.966 µg/mL
hu-IL1RaP ELISA (OD) (rhIL-1RAcP/Fc Chimera [3]): 3.6 OD
mu-IL1RaP ELISA (OD) (mIL1RAcP-Fc): -0.1 OD

B4: P013.S.02.B.C01 (antibody, V domains shown)
VH: QSVEESGGRLVTPGGSLTLTCTVSGFSLSVYAMGWFRQAPGKGLEWIGDIYTGSGSTWYASWAKGRFTISKTSTTVDLKITSPTTEDTATYFCAREIDAGYVGYGFNLWGQGTLVTVSS
VL: AQALTQTPSSVSAAVGGTVTINCQSSQSVYSDYLVWYQQKPGQPPKLLIYQASKLASGVPSRFKGSGSGTQFTLTISGVQSDDAATYYCQATYSSTGWYRAFGGGTEVVVK
notes: rabbit monoclonal antibody; also called P013.A.00109.C12
functional reporter gene assay (% inhibition), 0.04 µg/mL mAb [1]: 19%
functional reporter gene assay (% inhibition), 0.2 µg/mL mAb [1]: 28%
functional reporter gene assay (% inhibition), 1 µg/mL mAb [1]: 73%
functional reporter gene assay (% inhibition), 5 µg/mL mAb [1]: 96%
primary supernatant functional assay (% inh.), NF-kB luciferase reporter [1]: 88%
EC50 (rhIL-1RAcP/Fc Chimera [2]): 0.256 µg/mL
hu-IL1RaP ELISA (OD) (rhIL-1RAcP/Fc Chimera [3]): 3.5 OD
mu-IL1RaP ELISA (OD) (mIL1RAcP-Fc): -0.1 OD

B5: P013.S.01.B.D04 (antibody, V domains shown)
VH: QEQLKESGGRLVTPGGSLTLTCTVSGFSLSIYAMGWFRQAPGKGLEWIGDIYPGSDSTWYASWAKGRFTISKTSTTVDLKITSPTTEDTATYFCAREIDAGYVGYGFDLWGQGTLVTVSS
VL: B4 VL with V35A, P44S, Q51K, Q71E, S94Y, T96V
notes: rabbit monoclonal antibody; also called P013.A.00088.B09
functional reporter gene assay (% inhibition), 0.04 µg/mL mAb [1]: 27%
functional reporter gene assay (% inhibition), 0.2 µg/mL mAb [1]: 67%
functional reporter gene assay (% inhibition), 1 µg/mL mAb [1]: 87%
functional reporter gene assay (% inhibition), 5 µg/mL mAb [1]: 89%
primary supernatant functional assay (% inh.), NF-kB luciferase reporter [1]: 95%
EC50 (rhIL-1RAcP/Fc Chimera [2]): 0.247 µg/mL
hu-IL1RaP ELISA (OD) (rhIL-1RAcP/Fc Chimera [3]): 3.9 OD
mu-IL1RaP ELISA (OD) (mIL1RAcP-Fc): 0 OD

The next lines start with the values.

functional reporter gene assay (% inhibition), 0.04 µg/mL mAb [1]: 0%
functional reporter gene assay (% inhibition), 0.2 µg/mL mAb [1]: 14%
functional reporter gene assay (% inhibition), 1 µg/mL mAb [1]: 21%
functional reporter gene assay (% inhibition), 5 µg/mL mAb [1]: 68%
primary supernatant functional assay (% inh.), NF-kB luciferase reporter [1]: 85%
EC50 (rhIL-1RAcP/Fc Chimera [2]): 0.59 µg/mL
hu-IL1RaP ELISA (OD) (rhIL-1RAcP/Fc Chimera [3]): 3.3 OD
mu-IL1RaP ELISA (OD) (mIL1RAcP-Fc): 0 OD
B1: P013.S.02.B.E02 (antibody, V domains shown)
VH: QSVEESGGRLVTPGTPLTLTCTVSGFSLNVYNMGWVRQAPGKGLEYIGIISSSGTTYYASWAKGRFTISKTSSTTVDLKITSLTTEDTATYFCARADGYTEGDYATYFNLWGQGTLVTVSS
VL: DIVMTQTPASVSEPVGGTVTIKCQASQSITTWLAWYQQKPGQPPKLLIYQASALASGVSSRFIGSGYGTEFTLTISGVQSEDAATYYCQCTYGIGSGSSYGVAFGGGTEVVVK
notes: rabbit monoclonal antibody; also called P013.A.00087.E09

functional reporter gene assay (% inhibition), 0.04 µg/mL mAb [1]: 9%
functional reporter gene assay (% inhibition), 0.2 µg/mL mAb [1]: 22%
functional reporter gene assay (% inhibition), 1 µg/mL mAb [1]: 54%
functional reporter gene assay (% inhibition), 5 µg/mL mAb [1]: 79%
primary supernatant functional assay (% inh.), NF-kB luciferase reporter [1]: 85%
EC50 (rhIL-1RAcP/Fc Chimera [2]): 0.555 µg/mL
hu-IL1RaP ELISA (OD) (rhIL-1RAcP/Fc Chimera [3]): 3.4 OD
mu-IL1RaP ELISA (OD) (mIL1RAcP-Fc): -0.1 OD
B3: P013.S.02.B.D01 (antibody, V domains shown)
VH: LEQSGGGAEGGLVKPGGSLELCCKASGFSLSSNYWMCWVRQAPGKGLEWIGCIYAGSSDSTYYASWVNGRFTLSRDIDQSTGCLQLNSLTAADTAMYYCASPGYGGYGYYGLWGQGTLVTVSS
VL: ALVMTQTPSPVSAAVGGTVTINCQASEDIYSNLAWFQQKPGQPPKLLIYDASTLASGVPSRFSGSGSGTEFTLTISGLQSDDAATYYCLGVYTYISPDGTDNAFGGGTEVVVK
notes: rabbit monoclonal antibody; also called P013.A.00141.G02
